What all share (test): cell-based or functional assay
Assay [1] has as its target HIV-1 Env of pseudovirus MS208.A1 (HIV-1).
Assay [2] addresses HIV-1 Env of pseudovirus X1193_c1 (HIV-1).
In assay [3] the target is HIV-1 Env of pseudovirus BJOX010000.06.2 (HIV-1).
Assay [4] has as its target HIV-1 Env of pseudovirus 6540.v4.c1 (HIV-1).
Assay [5] deals with HIV-1 Env of pseudovirus CNE17 (HIV-1).
The target in assay [6] is HIV-1 Env of pseudovirus 1054_07_TC4_1499 (HIV-1).

B1: 10-1074 (antibody, V domains shown)
VH: QVQLQESGPGLVKPSETLSVTCSVSGDSMNNYYWTWIRQSPGKGLEWIGYISDRESATYNPSLNSRVVISRDTSKNQLSLKLNSVTPADTAVYYCATARRGQRIYGVVSFGEFFYYYSMDVWGKGTTVTVSS
VL: SYVRPLSVALGETARISCGRQALGSRAVQWYQHRPGQAPILLIYNNQDRPSGIPERFSGTPDINFGTRATLTISGVEAGDEADYYCHMWDSRSGFSWSFGGATRLTVL
With B1, the IC50 in TZM-bl assay in assay [1] is > 10 µg/mL; in assay [2] it was 0.07 µg/mL; in assay [3] it was > 10 µg/mL; in assay [4], > 10 µg/mL; in assay [5], 1.18 µg/mL; in assay [6] it was 0.048 µg/mL. In addition, the IC80 in TZM-bl assay is > 10 µg/mL in assay [1]; 0.207 µg/mL in assay [2]; > 10 µg/mL in assay [3]; > 10 µg/mL in assay [4]; 4.85 µg/mL in assay [5]; 0.222 µg/mL in assay [6].

The values above are taken from patent publication US11325966.
